B1: F4-0G4S-1 (bispecific antibody)
heavy 1: not shown
light 1: not shown
heavy 2: EVQLVQSGAEVKKPGASVKVSCKVSGYTFTDYPIHWMRQAPGQGLEWMGYVFPRDGSTKYNEKFRVRVTWTADKSTSTVYMELSSLRSEDTAVYYCSRELTAYWGQGTTVTVSSASTKGPSVFPLAPSSKSTSGGTAALGCLVKDYFPEPVTVSWNSGALTSGVHTFPAVLQSSGLYSLSSVVTVPSSSLGTQTYICNVNHKPSNTKVDKKVEPKSCDKTHTCPPCPAPEAAGGPSVFLFPPKPKDTLMISRTPEVTCVVVDVSHEDPEVKFNWYVDGVEVHNAKTKPREEQYNSTYRVVSVLTVLHQDWLNGKEYKCKVSNKALPAPIEKTISKAKGQPREPQVCTLPPSRDELTKNQVSLSCAVKGFYPSDIAVEWESNGQPENNYKTTPPVLDSDGSFFLVSKLTVDKSRWQQGNVFSCSVMHEALHNHYTQKSLSLSPGK
light 2: DVVLTQSPLSLPVTLGQPASISCKSSQSLLHSSGKTYLNWLLQRPGQSPRRLIYLVSKLDSGVPDRFSGSGSGTDFTLKISRVEAEDVGVYYCAQGTHFPRTFGGGTKVEIKRTVAAPSVFIFPPSDEQLKSGTASVVCLLNNFYPREAKVQWKVDNALQSGNSQESVTEQDSKDSTYSLSSTLTLSKADYEKHKVYACEVTHQGLSSPVTKSFNRGEC
B2: F2-0G4S-1 (bispecific antibody)
heavy 1: not shown
light 1: DVVMTQTPLSLSVTPGQPASISCRSSQSLVHSQGNTYLYWYLQKPGQSPKLLIYKVSNRFSGVPDRFSGSGSGTDFTLKISRVEAEDVGVYYCSQSTHVPPLTFGQGTKLEIKRTVAAPSVFIFPPSDEQLKSGTASVVCLLNNFYPREAKVQWKVDNALQSGNSQESVTEQDSKDSTYSLSSTLTLSKADYEKHKVYACEVTHQGLSSPVTKSFNRGEC
heavy 2: not shown
light 2: not shown

Target: human GPRC5D (human, UniProt Q9NZD1 1-345)
Assay: cell-based or functional assay

Sequence of human GPRC5D (Q9NZD1 whole entry): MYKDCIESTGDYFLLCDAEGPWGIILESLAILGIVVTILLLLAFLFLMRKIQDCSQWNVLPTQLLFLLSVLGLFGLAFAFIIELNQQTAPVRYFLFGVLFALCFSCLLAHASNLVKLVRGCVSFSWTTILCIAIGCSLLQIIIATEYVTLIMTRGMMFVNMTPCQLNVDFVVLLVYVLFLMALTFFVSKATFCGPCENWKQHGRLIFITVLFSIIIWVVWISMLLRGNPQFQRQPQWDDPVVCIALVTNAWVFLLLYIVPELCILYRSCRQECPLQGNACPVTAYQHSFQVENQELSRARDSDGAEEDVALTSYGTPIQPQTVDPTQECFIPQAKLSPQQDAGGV

| Binder | EC50 ratio (relative to JNJ-64407564), cytotoxic activity against NCI-H929 [ratio] |
| --- | --- |
| B1 | 0.09 |
| B2 | 0.57 |
